Assay results published in publication PMC3917506.

Biological target: mRFP1-Rac1 (wild type) (human), P63000
Experiment: FRET or BRET
Details: remark: other sources report otherwise

B1: Teal-N-WASP, O00401 1-505 (natural protein)
chain: MSSVQQQPPPPRRVTNVGSLLLTPQENESLFTFLGKKCVTMSSAVVQLYAADRNCMWSKKCSGVACLVKDNPQRSYFLRIFDIKDGKLLWEQELYNNFVYNSPRGYFHTFAGDTCQVALNFANEEEAKKFRKAVTDLLGRRQRKSEKRRDPPNGPNLPMATVDIKNPEITTNRFYGPQVNNISHTKEKKKGKAKKKRLTKADIGTPSNFQHIGHVGWDPNTGFDLNNLDPELKNLFDMCGISEAQLKDRETSKVIYDFIEKTGGVEAVKNELRRQAPPPPPPSRGGPPPPPPPPHNSGPPPPPARGRGAPPPPPSRAPTAAPPPPPPSRPSVAVPPPPPNRMYPPPPPALPSSAPSGPPPPPPSVLGVGPVAPPPPPPPPPPPGPPPPPGLPSDGDHQVPTTAGNKAALLDQIREGAQLKKVEQNSRPVSCSGRDALLDQIRQGIQLKSVADGQESTPPTPAPTSGIVGALMEVMQKRSKAIHSSDEDEDEDDEEDFEDDDEWED
B1 was tested. Which average FRET efficiency E% did it give?
The average FRET efficiency E% was 14%.
